Data on two substances can be found in US6979460B1, “Vinyl ether lipids with cleavable hydrophlic headgroups” (Purdue Research Foundation, priority 1999, dated 2005).

For series [1] the following is noted: DOPE:CVEP/calcein vesicles with DSPE-PEG3350-folate as targeting ligand.
Series [2] is described as follows: Acid-triggered calcein release from DOPE:vinyl ether lipid vesicles (calcein fluorescence dequenching assay). The class given is physicochemical. The procedure: DOPE and the labile PEG lipid were co-dissolved in chloroform that had been prefiltered through a 2.53 cm plug of anhydrous sodium carbonate to remove traces of acid and water from the solvent. This solution was evaporated under a gentle stream of N2 and further dried under vacuum (<200 μ, 4 h). Vesicles were formed by hydrating the lipid film in the presence of 50 mM calcein using five LN2 freeze-thaw-vortex cycles. This suspension was then extruded at 50° C. through two 100 nm track-etch polycarbonate membrane filters. Extraliposomal calcein was removed using a single pass through a 40 cm Sephadex G-50 gel column equilibrated with 150 mM NaCl. The fraction eluting at the void volume was collected and stored at 8° C. until use. Light-sensitive vesicles were prepared in the same manner, except that bacteriochlorophyll a (Bchl) was codissolved in the chloroform lipid solution. Other agents or mixtures of agents, such as therapeutic compounds or diagnostic agents, are substituted for calcein in the above protocol resulting in liposomal encapsulation of the substituted agent.
Vesicle release of the liposomes made in example 4 above, was monitored at 37° C. as a function of time using the calcein fluorescence dequenching assay. Acid-trigged release was initiated by dilution of the vesicles into an acidic buffer solution as described by Gerasimov et al. Light-triggered release was promoted by aerobic illumination (800 nm, 1 W) of a continuously stirred 1 cm quartz cuvette with a SDL 820 diode laser coupled to an optical fiber. The fiber was mounted perpendicular to the cuvette surface to produce a spot of ˜3 mm diameter. Both triggering methods were conducted either in the absence or presence of ten-fold excess of egg phosphatidylcholine (EPC) vesicles as a membrane “sink”.

On to “4-o-Cholesteryl-(3Z-buten-1-yl)-polyethylene [125] glycolate [CVEP]”, for which the “cellular calcein fluorescence pattern (cytoplasmic delivery)” value in series [1] is given as “punctuated fluorescence, followed by diffuse cytoplasmic fluorescence”.
For the substance “rac-1,2-Dioleyl-3-(4′-hydroxy-1′-butenyl)-glyceryl polyethylene [125] glycolate [DVEP]”, the t50% release result in series [2] (98:2 DOPE:DVEP vesicles, pH 4.5, in the absence of sink EPC) was “≈ 3 h”; in series [2] (98:2 DOPE:lipid vesicles (identical loadings), pH 4.5, 37° C.), 23 min. Further, in series [2] (98:2 DOPE:DVEP vesicles, pH 7.4, sink EPC present or not), the calcein leakage entry was “lack of leakage”.
